Experimental data reported in US20130064823A1 (Novartis, published 2013).

Assays:
[1] = target: cynomolgus LRP6 (cynomolgus, UniProt A0A2K5VCG3 20-1602); test: FACS on HEK293T/17 cells transiently transfected with cynomolgus LRP6 (Example 3); Fab or IgG format not stated on the sheet
[2] = target: T1, LRP6-Fc (R&D Systems, catalog No: 1505-LR) (human, UniProt O75581 20-1370); test: ELISA on plates coated with LRP6-Fc
T1 construct: also called 360 KD homodimer antigen LRP6-Fc
T1 sequence (looked up): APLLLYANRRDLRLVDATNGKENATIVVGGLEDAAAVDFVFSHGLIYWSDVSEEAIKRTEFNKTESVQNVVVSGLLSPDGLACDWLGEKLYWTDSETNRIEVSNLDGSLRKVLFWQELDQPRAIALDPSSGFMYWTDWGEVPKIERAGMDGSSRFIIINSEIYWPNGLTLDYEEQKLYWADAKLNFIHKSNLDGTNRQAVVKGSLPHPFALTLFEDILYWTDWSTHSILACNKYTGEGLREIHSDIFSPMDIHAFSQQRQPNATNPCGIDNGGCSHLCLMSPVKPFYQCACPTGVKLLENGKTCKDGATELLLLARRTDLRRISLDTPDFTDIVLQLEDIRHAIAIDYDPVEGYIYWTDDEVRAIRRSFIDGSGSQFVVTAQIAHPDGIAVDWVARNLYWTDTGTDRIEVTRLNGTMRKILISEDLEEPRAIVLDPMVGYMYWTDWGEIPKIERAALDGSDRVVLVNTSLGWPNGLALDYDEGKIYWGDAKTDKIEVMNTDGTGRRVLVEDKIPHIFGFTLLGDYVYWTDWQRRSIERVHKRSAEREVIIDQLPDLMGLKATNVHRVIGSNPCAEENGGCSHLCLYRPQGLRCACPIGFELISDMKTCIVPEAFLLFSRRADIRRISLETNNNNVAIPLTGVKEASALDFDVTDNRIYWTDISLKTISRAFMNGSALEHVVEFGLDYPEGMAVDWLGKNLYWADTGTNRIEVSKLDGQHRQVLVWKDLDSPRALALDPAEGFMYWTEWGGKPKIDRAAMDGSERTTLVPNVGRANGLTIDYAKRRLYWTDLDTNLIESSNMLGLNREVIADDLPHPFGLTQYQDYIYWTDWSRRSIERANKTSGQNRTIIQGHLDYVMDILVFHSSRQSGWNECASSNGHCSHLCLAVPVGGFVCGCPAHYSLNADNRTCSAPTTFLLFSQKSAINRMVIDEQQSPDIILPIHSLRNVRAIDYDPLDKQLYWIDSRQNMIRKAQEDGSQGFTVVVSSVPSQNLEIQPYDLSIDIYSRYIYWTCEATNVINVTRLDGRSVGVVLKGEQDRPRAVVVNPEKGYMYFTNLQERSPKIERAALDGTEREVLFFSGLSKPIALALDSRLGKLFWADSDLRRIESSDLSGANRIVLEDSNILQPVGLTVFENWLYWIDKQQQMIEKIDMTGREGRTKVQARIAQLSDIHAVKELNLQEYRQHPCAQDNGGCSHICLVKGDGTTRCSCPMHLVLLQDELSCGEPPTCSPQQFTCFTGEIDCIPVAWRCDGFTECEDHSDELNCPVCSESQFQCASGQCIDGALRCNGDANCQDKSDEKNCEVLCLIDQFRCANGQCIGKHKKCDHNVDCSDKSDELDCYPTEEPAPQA
Method: Binding EC₅₀ of scFvs against LRP6 protein was measured by ELISA. Maxisorp plate was coated with LRP6-Fc (R&D Sysytems, catalog No: 1505-LR) at 3 μg/ml at 4° C. overnight. The plate was blocked with 50 μl of 2% BSA for one hour, and washed five times with the wash solution. The samples were diluted with 1% BSA accordingly. The plate was incubated at RT for 1 h, and washed for 3 times. Detection was done by adding 50 μl pentallis-HRP (Qiagen Mat. No. 1014992) at 1:2000 dilution in 1% BSA, incubated at RT for 1 h, and washed 3 times. 50 μl of substrate reagent A plus B (R&D systems) was added, then incubated for 5-20 min depending on the color. The reaction was stopped by adding 25 μl of the stop solution, followed by plate reading at 450 nm.
Affinity analysis ELISA EC₅₀ was carried out for both scFv08168 and scFv06475 wild type and variants.

[3] = target: human LRP6 (human, UniProt O75581 20-1613); test: cell-based or functional assay

Chain of cynomolgus LRP6 (A0A2K5VCG3 entry or part of it): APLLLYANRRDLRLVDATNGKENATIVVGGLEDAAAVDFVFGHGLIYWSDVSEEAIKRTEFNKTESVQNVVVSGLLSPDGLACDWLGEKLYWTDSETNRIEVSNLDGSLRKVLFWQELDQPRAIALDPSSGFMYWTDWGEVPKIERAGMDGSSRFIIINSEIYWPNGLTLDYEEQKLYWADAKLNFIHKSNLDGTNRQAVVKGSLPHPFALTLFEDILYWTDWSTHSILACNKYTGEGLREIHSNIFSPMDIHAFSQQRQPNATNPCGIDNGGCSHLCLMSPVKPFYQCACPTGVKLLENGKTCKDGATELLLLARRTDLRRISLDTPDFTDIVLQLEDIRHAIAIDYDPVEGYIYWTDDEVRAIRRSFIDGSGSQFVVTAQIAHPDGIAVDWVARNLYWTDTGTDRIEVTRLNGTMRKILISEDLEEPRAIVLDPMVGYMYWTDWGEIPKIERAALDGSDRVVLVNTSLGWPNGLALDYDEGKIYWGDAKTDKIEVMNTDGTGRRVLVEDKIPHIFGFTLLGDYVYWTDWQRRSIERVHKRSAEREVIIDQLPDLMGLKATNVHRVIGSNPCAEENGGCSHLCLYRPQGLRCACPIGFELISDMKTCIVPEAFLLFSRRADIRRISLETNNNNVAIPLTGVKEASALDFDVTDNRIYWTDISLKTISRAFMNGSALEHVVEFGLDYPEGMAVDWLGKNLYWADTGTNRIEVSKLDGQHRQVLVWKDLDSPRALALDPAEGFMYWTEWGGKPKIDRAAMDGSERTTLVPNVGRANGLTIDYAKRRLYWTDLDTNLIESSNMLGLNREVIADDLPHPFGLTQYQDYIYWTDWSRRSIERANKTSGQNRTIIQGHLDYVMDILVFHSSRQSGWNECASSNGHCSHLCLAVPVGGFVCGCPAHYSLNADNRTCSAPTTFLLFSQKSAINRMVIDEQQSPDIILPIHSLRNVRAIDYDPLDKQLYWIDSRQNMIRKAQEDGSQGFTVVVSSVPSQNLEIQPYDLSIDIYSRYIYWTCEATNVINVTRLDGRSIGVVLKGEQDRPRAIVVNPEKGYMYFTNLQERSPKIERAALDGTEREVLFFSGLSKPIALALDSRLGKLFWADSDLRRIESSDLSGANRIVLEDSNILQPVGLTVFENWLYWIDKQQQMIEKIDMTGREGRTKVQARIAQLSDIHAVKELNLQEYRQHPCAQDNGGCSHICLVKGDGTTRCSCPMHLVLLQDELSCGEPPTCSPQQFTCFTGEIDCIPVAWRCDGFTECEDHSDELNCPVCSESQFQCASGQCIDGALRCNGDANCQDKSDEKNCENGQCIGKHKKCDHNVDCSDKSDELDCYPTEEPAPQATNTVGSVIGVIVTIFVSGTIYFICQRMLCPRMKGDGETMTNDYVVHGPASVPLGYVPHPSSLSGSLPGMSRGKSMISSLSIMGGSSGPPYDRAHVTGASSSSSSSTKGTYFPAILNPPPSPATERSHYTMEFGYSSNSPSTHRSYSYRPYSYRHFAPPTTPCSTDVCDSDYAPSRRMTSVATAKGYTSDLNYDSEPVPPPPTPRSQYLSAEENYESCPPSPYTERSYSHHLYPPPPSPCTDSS

B1: MOR08545 Fab (Fab, V domains shown)
VH: QVQLVESGGGLVQPGGSLRLSCAASGFTFSVNGMHWVRQAPGKGLEWVSVIDGMGHTYYADSVKGRFTISRDNSKNTLYLQMNSLRAEDTAVYYCARYDYIKYGAFDPWGQGTLVTVSS
VL: DIELTQPPSVSVAPGQTARISCSGDNIGSKYVHWYQQKPGQAPVLVIYGDSNRPSGIPERFSGSNSGNTATLTISGTQAEDEADYYCTRTSTPISGVFGGGTKLTVLG
notes: also called Propeller 1 anti-LRP6 Fab MOR08545
- EC50 [1]: 0.3 nM

B2: MOR08193 Fab (Fab, V domains shown)
VH: QVQLKESGPALVKPTQTLTLTCTFSGFSLSNRGGGVGWIRQPPGKALEWLAWIDWDDDKSYSTSLKTRLTISKDTSKNQVVLTMTNMDPVDTATYYCARMHLPLVFDSWGQGTLVTVSS
VL: DIVLTQSPATLSLSPGERATLSCRASQFIGSRYLAWYQQKPGQAPRLLIYGASNRATGVPARFSGSGSGTDFTLTISSLEPEDFAVYYCQQYWSIPITFGQGTKVEIKR
notes: also called Propeller 3 anti-LRP6 Fab MOR08193
- EC50 [1]: 0.2 nM

B3: scFv08168-D2 (scFv)
chain: QVQLVESGGGLVQPGGSLRLSCAASGFTFSDYVFNWVRQAPGKGLEWVAGISWSGVNTHYADSVKGRFTISRDNSKNTLYLQMNSLRAEDTAVYYCARLGATANNIRYKFMDVWGQGTLVTVSSGGGGSGGGGSGGGGSDIELTQPPSVSVAPGQTARISCSGDSLRNKVYWYQQKPGQAPVLVIYKNNRPSGIPERFSGSNSGNTATLTISGTQAEDEADYYCQSYDGQKSLVFGGGTKLTVL
- EC50 [2]: 1.68 nM

B4: scFv08168-D4 (scFv)
chain: QVQLVESGGGLVQPGGSLRLSCAASGFTFSDYVMNWVRQAPGKGLEWVSSISWSGVNTHYADSVKGRFTISRDNSKNTLYLQMNSLRAEDTAVYYCARLGATANNIRYKFMDVWGQGTLVTVSSGGGGSGGGGSGGGGSDIELTQPPSVSVAPGQTARISCSGDSLRNKVYWYQQKPGQAPVLVIYKNNRPSGIPERFSGSNSGNTATLTISGTQAEDEADYYCQSYDGQKSLVFGGGTKLTVL
- EC50 [2]: 1.47 nM

B5: scFv08168-D5 (scFv)
chain: QVQLVESGGGLVQPGGSLRLSCAASGFTFSDYVMNWVRQAPGKGLEWVSGISWSGVNTYYADSVKGRFTISRDNSKNTLYLQMNSLRAEDTAVYYCARLGATANNIRYKFMDVWGQGTLVTVSSGGGGSGGGGSGGGGSDIELTQPPSVSVAPGQTARISCSGDSLRNKVYWYQQKPGQAPVLVIYKNNRPSGIPERFSGSNSGNTATLTISGTQAEDEADYYCQSYDGQKSLVFGGGTKLTVL
- EC50 [2]: 1.22 nM

B6: MOR08473 Fab (Fab, V domains shown)
VH: QVQLVESGGGLVQPGGSLRLSCAASGFTFSSYGMSWVRQAPGKGLEWVSNISNDGHYTYYADSVKGRFTISRDNSKNTLYLQMNSLRAEDTAVYYCARFQASYLDIMDYWGQGTLVTVSS
VL: DIELTQPPSVSVAPGQSITISCSGDNIGSKYVHWYQQKPGQAPVLVIYNDSNRPSGIPERFSGSNSGNTATLTISGTQAEDEADYYCQAWGDNGTRVFGGGTKLTVLG
notes: also called Propeller 3 anti-LRP6 Fab MOR08473
- EC50 [1]: 0.52 nM

B7: scFv08168-D7 (scFv, V domains shown)
VH: QVQLVESGGGLVQPGGSLRLSCAASGFTFSDYVMNWVRQAPGKGLEWVSGISWSGVNTHYADSVKGRFTISRDNSKNTLYLQMNSLRAEDTAVYYCARLGATANNIRYKFMDVWGQGTLVTVSS
VL: DIELTQPPSVSVAPGQTARITCSGDSLRNKVYWYQQKPGQAPVLVIYKNNRPSGIPERFSGSNSGNTATLTISGTQAEDEADYYCQSYDGQKSLVFGGGTKLTVL
- IC50 by STF assay for Wnt1 inhibition [3]: 4.81 nM
- EC50 [2]: 1.15 nM

B8: scFv08168-D9 (scFv, V domains shown)
VH: QVQLVESGGGLVQPGGSLRLSCAASGFTFSDYVMNWVRQAPGKGLEWVSGISWSGVNTHYADSVKGRFTISRDNSKNTLYLQMNSLRAEDTAVYYCARLGATANNIRYKFMDVWGQGTLVTVSS
VL: DIELTQPPSVSVAPGQTARISCSGDSLRNKVYWYQQKPGQAPVLVIYKNNRPSGIPERFSVSNSGNTATLTISGTQAEDEADYYCQSYDGQKSLVFGGGTKLTVL
- IC50 by STF assay for Wnt1 inhibition [3]: 11.1 nM
- EC50 [2]: 1.26 nM

B9: MOR08168 Fab (Fab, V domains shown)
VH: QVQLVESGGGLVQPGGSLRLSCAASGFTFSDYVINWVRQAPGKGLEWVSGISWSGVNTHYADSVKGRFTISRDNSKNTLYLQMNSLRAEDTAVYYCARLGATANNIRYKFMDVWGQGTLVTVSS
VL: DIELTQPPSVSVAPGQTARISCSGDSLRNKVYWYQQKPGQAPVLVIYKNNRPSGIPERFSGSNSGNTATLTISGTQAEDEADYYCQSYDGQKSLVFGGGTKLTVL
notes: HuCAL Fab expressed in E. coli; also called Propeller 1 anti-LRP6 Fab MOR08168
- EC50 [1]: 0.88 nM

B10: scFv08168-D8 (scFv, V domains shown)
VH: QVQLVESGGGLVQPGGSLRLSCAASGFTFSDYVMNWVRQAPGKGLEWVSGISWSGVNTHYADSVKGRFTISRDNSKNTLYLQMNSLRAEDTAVYYCARLGATANNIRYKFMDVWGQGTLVTVSS
VL: DIELTQPPSVSVAPGQTARISCSGDSLRNKVYWYQQKPGQAPVLLIYKNNRPSGIPERFSGSNSGNTATLTISGTQAEDEADYYCQSYDGQKSLVFGGGTKLTVL
- EC50 [2]: 0.91 nM

B11: scFv08168-D6 (scFv, V domains shown)
VH: QVQLVESGGGLVQPGGSLRLSCAASGFTFSDYVMNWVRQAPGKGLEWISGISWSGVNTHYADSVKGRFTISRDNSKNTLYLQMNSLRAEDTAVYYCARLGATANNIRYKFMDVWGQGTLVTVSS
VL: DIELTQPPSVSVAPGQTARISCSGDSLRNKVYWYQQKPGQAPVLVIYKNNRPSGIPERFSGSNSGNTATLTISGTQAEDEADYYCQSYDGQKSLVFGGGTKLTVL
- IC50 by STF assay for Wnt1 inhibition [3]: 0.74 nM
- EC50 [2]: 1.24 nM

B12: MOR06706 Fab (Fab, V domains shown)
VH: QVQLVESGGGLVQPGGSLRLSCAASGFTFSDYAIHWVRQAPGKGLEWVSGISYSGSSTHYADSVKGRFTISRDNSKNTLYLQMNSLRAEDTAVYYCARGSHGNIMAKRYFDFWGQGTLVTVSS
VL: DIELTQPPSVSVAPGQTARISCSGDNIRKKYVYWYQQKPGQAPVLVIYEDSKRPSGIPERFSGSNSGNTATLTISGTQAEDEADYYCSTADSGINNGVFGGGTKLTVL
notes: also called Propeller 1 anti-LRP6 Fab MOR06706
- EC50 [1]: 0.46 nM
